Measurements: publication PMC11847536 (The Journal of Biological Chemistry, 2025)

Tests used:
[1] = target: T1, PRMT5/biotinylated WDR77 complex (UniProt O14744 1-637; Q9BQA1 1-342, biotin (site not stated)); experiment: FRET or BRET; TR-FRET equilibrium binding: adaptors labeled by BODIPY-maleimide titrated into PRMT5/biotinylated WDR77 incubated with terbium-coupled streptavidin; conditions: both partners purified
T1 construct: PRMT5 (protein arginine methyltransferase 5); Held by terbium-coupled streptavidin in the TR-FRET assay; copies: 4 + 4
T1 sequence (O14744 whole entry, chain 1 of 2): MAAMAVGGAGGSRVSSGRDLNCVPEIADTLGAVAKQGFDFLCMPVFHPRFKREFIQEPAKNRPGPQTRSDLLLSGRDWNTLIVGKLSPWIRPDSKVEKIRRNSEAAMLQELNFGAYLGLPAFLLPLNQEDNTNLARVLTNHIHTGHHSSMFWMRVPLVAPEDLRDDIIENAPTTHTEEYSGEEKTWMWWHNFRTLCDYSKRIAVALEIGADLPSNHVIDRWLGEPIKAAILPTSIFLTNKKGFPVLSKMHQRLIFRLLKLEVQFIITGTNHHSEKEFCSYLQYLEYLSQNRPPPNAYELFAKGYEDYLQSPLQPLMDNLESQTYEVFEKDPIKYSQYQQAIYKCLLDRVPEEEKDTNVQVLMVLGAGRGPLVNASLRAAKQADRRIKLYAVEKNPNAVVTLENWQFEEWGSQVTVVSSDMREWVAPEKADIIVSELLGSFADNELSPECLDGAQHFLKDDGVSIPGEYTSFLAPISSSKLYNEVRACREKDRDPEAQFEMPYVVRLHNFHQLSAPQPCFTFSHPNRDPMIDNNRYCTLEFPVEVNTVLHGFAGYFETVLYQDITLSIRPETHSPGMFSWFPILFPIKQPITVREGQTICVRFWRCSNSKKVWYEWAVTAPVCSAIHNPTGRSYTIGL
T1 sequence (Q9BQA1 whole entry, chain 2 of 2): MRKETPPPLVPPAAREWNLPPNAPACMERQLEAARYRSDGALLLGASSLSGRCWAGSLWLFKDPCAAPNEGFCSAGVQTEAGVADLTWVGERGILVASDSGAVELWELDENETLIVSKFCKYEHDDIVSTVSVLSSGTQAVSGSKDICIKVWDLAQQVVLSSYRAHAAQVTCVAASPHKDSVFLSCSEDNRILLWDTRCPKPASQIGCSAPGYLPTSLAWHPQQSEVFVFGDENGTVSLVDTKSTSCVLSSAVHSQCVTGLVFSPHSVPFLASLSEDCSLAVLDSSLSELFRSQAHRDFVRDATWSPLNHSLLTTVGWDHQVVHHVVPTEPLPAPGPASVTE

[2] = target: T1, PRMT5/biotinylated WDR77 complex; experiment: FRET or BRET; TR-FRET displacement: unlabeled pICln, RIOK1 and ΔPBM constructs titrated to displace BODIPY-labeled pICln tracer from PRMT5/WDR77; conditions: both partners purified

| Kd [1] | IC50 [2] | Binder |
| --- | --- | --- |
| 32.5 ± 3.8 nM | – | BODIPY-labeled pICln (natural protein, UniProt P54105 1-237, looked up, BODIPY (labeled by BODIPY-maleimide; site not stated), pICln, PRMT5 substrate adaptor with a PBM peptide in its C-terminal region; also called BODIPY-pICln; source: LBSTR Escherichia coli (Kerafast, EC1002), purified) MSFLKSFPPPGPAEGLLRQQPDTEAVLNGKGLGTGTLYIAESRLSWLDGSGLGFSLEYPTISLHALSRDRSDCLGEHLYVMVNAKFEEESKEPVADEEEEDSDDDVEPITEFRFVPSDKSALEAMFTAMCECQALHPDPEDEDSDDYDGEEYDVEAHEQGQGDIPTFYTYEEGLSHLTAEGQATLERLEGMLSQSVSSQYNMAGVRTEDSIRDYEDGMEVDTTPTVAGQFEDADVDH |
| – | 69.5 ± 3.3 nM | pICln (unlabeled) (natural protein, UniProt P54105 1-237, looked up, pICln, PRMT5 substrate adaptor with a PBM peptide in its C-terminal region; Used free in the displacement assay and as a member of the 6S complex in the cryo-EM sample; only the PBM peptide is seen in the map; also called pICIn; source: LBSTR Escherichia coli (Kerafast, EC1002), purified) MSFLKSFPPPGPAEGLLRQQPDTEAVLNGKGLGTGTLYIAESRLSWLDGSGLGFSLEYPTISLHALSRDRSDCLGEHLYVMVNAKFEEESKEPVADEEEEDSDDDVEPITEFRFVPSDKSALEAMFTAMCECQALHPDPEDEDSDDYDGEEYDVEAHEQGQGDIPTFYTYEEGLSHLTAEGQATLERLEGMLSQSVSSQYNMAGVRTEDSIRDYEDGMEVDTTPTVAGQFEDADVDH |
